Data taken from the RNAGym collection of RNA variant scans (doi:10.1073/pnas.2313332121).
This sample holds only a part of the variants without activity.

B1: TPR 5TU (parent)
chain: GGAUCUUCUCGAUCUAACAAAAAAGACAAAUCUGCCACAAAGCUUGAGAGCAUCUUCGGAUGCAGAGGCGGCAGCCUUCGGUGGCGCGAUAGCGCCAACGUUCUCAACUAUGACACGCAAAACGCGUGCUCCGUUGAAUGGAGUUUAUCAUG

Variants of: B1
Assay: polymerase ribozyme fitness, log enrichment relative to wild type (log ratio); higher = more active; in vitro selection for triplet polymerase activity
In short: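 One round of in vitro selection, in triplicate, was applied to PCR-built, transcribed mutant libraries of each subunit of a heterodimeric triplet polymerase ribozyme. The steps were annealing with a biotinylated primer, partner subunit and triplets, incubation frozen at −7 °C, gel excision of extended constructs, streptavidin-bead capture and RT-PCR. Fitness is the logarithm, base 2, of genotype enrichment over wild-type enrichment from inverse-variance-weighted replicate averages of Illumina-sequenced inputs and outputs, keeping genotypes with ≥10 input reads and ≥1 read per output.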

| Variant | polymerase ribozyme fitness (log ratio) |
| --- | --- |
| GGAUCUUCUCGCUCUAACAAAGAAGACAAAUGUGCCACAAAGCUUGAGAGGAUCUUCGGUUGCAGAGGCGGCAGCCAUCGCUGGCGCGAUAGCGCCAACGUUCUCAACUAUGACACGCAAAACGCGUACUCCGUUGAAUGGAGUUUACCAUG [A12C A22G C32G C51G A60U U77A G81C G128A U148C] | ≤ -4.2 |
| GGAUCUUCUCGCUCUAACAAAAAAGACAAAUCUGCCACUAAGCUUGAGAGCAUCUUCGAAUGCAGAGGCGGCAGCCUUCGGUGGCGCGAUUGUGCCAACGUUCUCAACUAUGACACGCAAAACGCGUGCUCCGUUGAAUGGAGUUUAUCCUG [A12C A39U G59A A91U C93U A150C] | ≤ -4.2 |
| GGAUCUUCUCGCUCUAACAAAAAAGAUAAAUCUUCCACAAAGCUUGAGAGCAUCUUCGGAUGUAGAGGCGGCAGCCUUCGGUGGCGCGAUAGAGCCAACGUUCUCAACUAUGACACGCAAAACGCGUGCUCCGUUGAAUGGAGUUUAUCAUG [A12C C27U G34U C63U C93A] | -4.1 |
| GGAUCUUCUCGCUCUAACAAAAAAGACAAAUCUGCCACAAAGCUUGAGAGCAUCUUAGGAUGCAGAGGCGGCAGCCUUCGGUUGCGCGAUAGCGCCAACGUUCUCAACUAUGACACGCAAAACGCGUGCUCCGUUCAAUGGAGUUUAUCAUG [A12C C57A G83U G136C] | -3.78 |
| GGAUCUUCUCGCUCUAACAAAAAAGACAAAUCUGCCACAAAGCUUGAGAGCAUCUUCGGUUGCAGAGGCGGCAGGCUUCGGUGGCGCCAUGGCGCCAACGUUCUCAACGAUGACACGCAAAACGCGUGCUCCGUUGAAUGGAGUUUAUCAUG [A12C A60U C75G G88C A91G U109G] | ≤ -4.2 |
| GGAUCUUCUCGCUCUAACAAAAAAGACAAAUCUGCCACAAAGCUUGAGAGCAUCUUCGGAUGCAGGGGCGGCAGCCUUCGGUGGCGCGAUUGCGCCAACGUUCUCAACUAUGACACGCAAAACGCGUGCUCCGUUGAAUGGAGUUUAUCAUG [A12C A66G A91U] | ≤ -4.2 |
| GGAUCUUCUCGCUCUAACAAAAAAGCCAAAUCUGCCACAAAGCUUGAGAGCAUCUUCGGAUGCAGAGGCGGCAGCCUUCGGUGGCGCGAUACCGCCAACGUUCUCAACUAUGACACGCAAAACGCGUGCUCCGUUGAAUGGAGUUUAUCAUG [A12C A26C G92C] | -3.66 |
| GGAUCUUCUCGCUGUAACAAAAAAGUCAAAUCUGCCACAAAGCUUGAGCGCAUCUUCGAAUGCAGAGGCGGCAGCCUUCGGUGGCGCGAUAGCGCCAACGUUCUCAACUAUGACACGCAAAACGCGUGCUACGUUGAAUGGAGUUUAUCAUG [A12C C14G A26U A49C G59A C131A] | ≤ -4.2 |
| GGAUCUUCUCGCUCUAACAAAAAGGACAAAUCUGCCACAAAGCUUGAGAGCAUCUUCGGAUGCAGAGGCGGCAGCCUUCGGUGGUGCGAUAGCGUCAACGUUCUCAACUAUGACACGCAGAACGCGUGCUCCGUUGAAUGGAGUUUAUCAUG [A12C A24G C85U C95U A120G] | ≤ -4.2 |
| GGAUCUUCUCGCUCUAAGAAAAAAGACAAAUCUGCCACAUAGCUUGAGAGCAUCUUCGGAUGCAGAGGCGGCAGCCUUCGGUGGCGCGAUAGCGCCAACGUUCUCAACUAUGACACGCAAAAUGCGUGCUCCGUUUAAUGGAGUUUAUCAUG [A12C C18G A40U C123U G136U] | -3.09 |
| GGAUCUUCUCGCUCUAACAAUAAAGACAAAUCUGCCACAAAGCUUGAGAGCAUCUUCGGAUGCCGAGGCGGCAGCCUUCGGUGUCGCGAUAGCGCCAACGUUCUCAACUAUGACACGCAAAACGCGCGCUCCGUUGAUUGGAGUUUAUCAUG [A12C A21U A64C G84U U127C A138U] | ≤ -4.2 |
| GGAUCUUCUCGCUCUAACAAAAAAGACAAAUCUGCCACAAAGCUUGAGAGCAUCUUCGGAUGCGGAGGCGGCAGCCUUCGGUGGAGCGAUAGCGCCAACCUUCUCAACUAUGACACGCAAAACGCGUGCUCCGUUGAAUGGAGUUUAUCAUG [A12C A64G C85A G100C] | ≤ -4.2 |
| GGAUCUUCUCGCUCUAACAAAAAAGACAAAUCUGACACAAAGCUUGAGAGCAUCUUCGGAUGCAGAGGCGGCAGCCUUCGGUGGGGCGAUAGCGCCAACGUUGUCAACUAUGACACGGAAAACGCGUGCUCCGUUGAAUGCAGUUUAUCAUG [A12C C35A C85G C103G C118G G141C] | ≤ -4.2 |
| GGAUCUUCUCGCUCUAACAAAAAAGACACAUCUGCCACAAAGCUUGAGAGCAUCUUCGGAUGCAGAGGCGGCAGCCUUCGGUGGAGCGAUAGCGCCAACGUUCUCAACUAUGACACGCAAAACGCGUGCUCCAUUGAAUGGAGUUUAUCAUG [A12C A29C C85A G133A] | ≤ -4.2 |
| GGAUCUUCUCGCUCUAACAAAAAAGACAAAUCUGCCACAAAGCUUGAGAGCCUUUUCGGAUGCAGAGGCGGCAGCCUUCGGUGGCGCGAUAGCGCCAACGUUCUCAACUAUGACACGCAAAACGCGUGCUCCGUUGAAUGGAGUAUAUCAUG [A12C A52C C54U U145A] | -3.53 |
| GGAUCUUCUCGCUCUAACAAAAAAGACAAAUCUGCCCCAAAGCUUGAGAGCAUCUUCGGAUGCAGAGGCGGAAGCCUUCGGUGGCGCGAGAGCGCCAACGAUUUCAACUAUGACACGCAAAACGCGUGCUCCGUUGAGUGGUGUUUAUCAUG [A12C A37C C72A U90G U101A C103U A138G A142U] | ≤ -4.2 |
| GGAUCUUCUCGCUCUAACAAAAAAGACAAAUCUGCCACAAAGCUUGAGAGCGUCUUCGGAUGCAGAGGCGGCAGCCUUCGGUGGCGCGAUAGCGCCAACGUUCUCAACUAUGACACGCAAAACGCGUGCUCCGUUGAAUGGAGUUUAUCAUG [A12C A52G] | -0.179 |
| GGAUCUUCUCGCUCUAACAAAAAAGACAAAUCUGUCACAAAGCUUGAGAGCAUCUUCGGAUGCAGAGGCGGCAGCCUUCGGUGGCACGAUAGUGCCAACGUUCUCAACUAUGACACGCAAAACGCGUGCUCCGUUGAAUGGAGUUUAUCAUG [A12C C35U G86A C93U] | -1.43 |
| GGAUCUUCUCGCUUUAACAAACAAGACAAAUCUGCCACAAAGCUUGAGAGCAUCUUCGGAGGCAAAGGCGGCAGCCUUCGGUGGCACGAUAGUGCCAACGUUCUCAACUAUGACACGCAAAACGCGUGCUCCGGUGAAUGGAGUUUAUCAUG [A12C C14U A22C U61G G65A G86A C93U U134G] | ≤ -4.2 |
